One test concerns CHO. Briefly: Proteome labeling after transient transfection and AzY/AzF incubation, DIBO-Alexa Fluor 647 in-gel fluorescence. In kind it is cell-based, hamster. As to conditions: transient transfection, 2 mM AzY or AzF. How it is done:
(§1) Cells were lysed, pre-treated with iodoacetamide (IAM) to block background thiol-yne additions (25), and treated with dibenzocyclooctyne (DIBO)-Alexa Fluor 647 dye for copper-free, strain-promoted azide-alkyne cycloaddition.
(§2) Cell transfection, click amino acid labeling, and selection of stably transfected B16-F10 cells. Unless otherwise noted, cells were transiently transfected with Lipofectamine 3000 (Invitrogen) 24 hours prior to 4-Azido-L-phenylalanine (AzF, Chem-Implex) or 3-Azido-L-tyrosine (AzY, Watanabe Chemical Industries) labeling. For initial assessment of labeling across mammalian cell lines, transfected cells were incubated with 2 mM of AzF, AzY, tyrosine, or phenylalanine for 30 hours in 12-well plates prior to lysis. To characterize enzyme selectivity and rate of substrate activation, transfected HEK293T cells were incubated with varying amounts of endogenous and non-canonical amino acids for 24 hours in 12-well plates prior to lysis. For affinity enrichment prior to shotgun mass spectrometry, transfected HEK293T cells were incubated with 125 μM of endogenous and non-canonical amino acids for 24 hours in 10 cm dishes prior to lysis. B16-F10 cells were transfected with mutant synthetases in the Piggybac vector PB513B-1 for 72 hours prior to puromycin selection at 10 μg/ml for 10 days.
(§3) Copper-free reaction of DIBO-Alexa Fluor 647 with click-labeled cell lysates for in-gel fluorescence. After washing in PBS twice, cells were lysed 1% SDS in PBS with EDTA-free protease inhibitor (Roche). […] Protein concentrations were measured with a BCA Protein Assay Kit (Pierce) to ensure equal loading across gel wells (˜23 μg). […] Colloidally stained gels were imaged in the 800-nm channel of an Odyssey CLx (LI-COR), where no bleed-through of the Alexa Fluor 647 signal was detected. Quantification of signal intensities of labeled proteomes from each gel lane were analyzed in ImageJ as before, but with slight modifications (36). […] Instead, the mean and standard deviations were calculated from biological triplicates of whole gel lanes, less the dye front.

The test system of a further test is HEK293T cells. As to the kind of experiment: Selectivity of ncAA activation over canonical amino acid, in-gel AF647 fluorescence fitted to Michaelis-Menten kinetics. In kind it is cell-based, human. The note with it: equimolar concentrations of the two amino acids; serum-containing media, 24 h. The source says:
FIGS. 2A-2E: Identification and characterization of TyrRS and PheRS variants for bioorthogonal labeling of mammalian proteomes with AzY and AzF. FIG. 2A: A single substitution (Y43G) in the amino acid binding site of yeast tyrosyl-tRNA synthetase (ScTyrY43G) enables charging of the azido tyrosine analog AzY onto tRNA^TYr before incorporation into nascent proteins of host cells. FIG. 2B: A single substitution (T413G) in the amino binding site of human or mouse phenylalanyl-tRNA synthetase (MmPheT413G) enables charging of the azido phenylalanine analog AzF onto tRNA^Phe. FIG. 2C: In-gel fluorescence image of Alexa Fluor 647 labeling corresponding to AzY or AzF incorporation into mammalian cell proteomes. ‘WT’: no exogenous amino acid added to media. ‘CP1 switch’: an E. coli TyrRS with the human CP1 peptide engrafted. ‘Mj TyRS’: TyrRS from the species M. jannaschii, without its accompanying tRNA. FIG. 2D: High selectivity of ScTyrY43G for AzY over Tyr. In-gel Alexa Fluor 647 fluorescence and coomassie blue staining of whole gel lanes were quantified to assess the degree of proteome labeling normalized to total protein content. […]
Copper-free reaction of DIBO-Alexa Fluor 647 with click-labeled cell lysates for in-gel fluorescence. […] Protein concentrations were measured with a BCA Protein Assay Kit (Pierce) to ensure equal loading across gel wells (˜23 μg). […]

For the next test, the system named is B16-F10. Briefly: Proteome labeling after transient transfection and AzY/AzF incubation, DIBO-Alexa Fluor 647 in-gel fluorescence. In kind it is cell-based, mouse. As to conditions: transient transfection, 2 mM AzY or AzF. How it is done:
as §1, §2, §3

Another test relates to HEK293T. The test is described as above. In kind it is cell-based, human. As to conditions: transient transfection, 2 mM AzY or AzF. How it is done:
as §1, §2, §3

B1: MmPheT413G: mouse phenylalanyl-tRNA synthetase with T413G substitution, charges AzF onto tRNA-Phe; SEQ ID NO:5 (protein)
chain: MADNPVLELLLRRLEVADGGLDSAELATQLGVEHQAVVGAVKSLQALGEVIEAELRSTKCWELTTEGEEIAREGSHEARVFRSIPLEGLVQSELMHLPSGKVGFSKAMSNKWIRVDKSAADGPRVFRVVDSIEDEVQKRLQLVQAGQAEKLAEKERNELRKRKLLTEVILKTYWVSKGKAFSTSVSKQEAELSPEMISSGSWRDRPFKPYNFSARGVLPDSGHLHPLLKVRSQFRQIFLEMGFTEMPTDNFIESSFWNFDALFQPQQHPARDQHDTFFLRDPAEALQLPMGYVQRVKRTHSQGGYGSQGYKYTWKLEEARKNLLRTHTTAASARALYQLAQKKPFTPAKYFSIDRVFRNETLDATHLAEFHQIEGVIADHGLTLGHLMGVLREFFTKLGITQLRFKPAYNPYGEPSMEVFSYHQGLKKWVEVGNSGVFRPEMLLPMGLPENVSVIAWGLSLERPTMIKYGINNIRELVGHKVNLQMVYDSPVCRLDIEPRSSKTQEAA
Consider B1, for which the proteome labeling entry with CHO, in the test with B16-F10 and with HEK293T was “strong labeling” in each case. Further, in the test on HEK293T cells, the “activation of AzF faster than Phe” value is “over 11 fold”.

B2: HsPheT413G: human phenylalanyl-tRNA synthetase with T413G substitution; SEQ ID NO:6 (protein)
chain: MADGQVAELLLRRLEASDGGLDSAELAAELGMEHQAVVGAVKSLQALGEVIEAELRSTKHWELTAEGEEIAREGSHEARVFRSIPPEGLAQSELMRLPSGKVGFSKAMSNKWIRVDKSAADGPRVFRVVDSMEDEVQRRLQLVRGGQAEKLGEKERSELRKRKLLAEVTLKTYWVSKGSAFSTSISKQETELSPEMISSGSWRDRPFKPYNFLAHGVLPDSGHLHPLLKVRSQFRQIFLEMGFTEMPTDNFIESSFWNFDALFQPQQHPARDQHDTFFLRDPAEALQLPMDYVQRVKRTHSQGGYGSQGYKYNWKLDEARKNLLRTHTTSASARALYRLAQKKPFTPVKYFSIDRVFRNETLDATHLAEFHQIEGVVADHGLTLGHLMGVLREFFTKLGITQLRFKPAYNPYGEPSMEVFSYHQGLKKWVEVGNSGVFRPEMLLPMGLPENVSVIAWGLSLERPTMIKYGINNIRELVGHKVNLQMVYDSPLCRLDAEPRPPPTQEAA
Consider B2, for which the proteome labeling result in the test with CHO, in the test with B16-F10 and in the test on HEK293T was “strong labeling” each time.

B3: ScTyrY43G: yeast tyrosyl-tRNA synthetase with Y43G substitution, charges AzY onto tRNA-Tyr; SEQ ID NO:4 (protein)
chain: MSSAATVDPNEAFGLITKNLQEVLNPQIIKDVLEVQKRHLKLGWGTAPTGRPHCGYFVPMTKLADFLKAGCEVTVLLADLHAFLDNMKAPLEVVNYRAKYYELTIKAILRSINVPIEKLKFVVGSSYQLTPDYTMDIFRLSNIVSQNDAKRAGADVVKQVANPLLSGLIYPLMQALDEQFLDVDCQFGGVDQRKIFVLAEENLPSLGYKKRAHLMNPMVPGLAQGGKMSASDPNSKIDLLEEPKQVKKKINSAFCSPGNVEENGLLSFVQYVIAPIQELKFGTNHFEFFIDRPEKFGGPITYKSFEEMKLAFKEEKLSPPDLKIGVADAINELLEPIRQEFADNKEFQEASEKGYPVATPQKSKKAKKPKNKGTKYPGATKTNEIATKLEETKL
B3: the proteome labeling entry in the test on CHO, in the test with B16-F10 and in the test on HEK293T was “strong labeling” throughout. Also, the “activation of AzY faster than Tyr” value with HEK293T cells is reported as approximately 250 fold.

(Values after patent US11921118B2, “Methods for proteome labeling” (The Board of Trustees of the Leland Stanford Junior …, priority 2018, dated 2024).)
